One experiment concerns the target T1, protein S (Homo sapiens, UniProt P07225).
T1 sequence (P07225 42-676): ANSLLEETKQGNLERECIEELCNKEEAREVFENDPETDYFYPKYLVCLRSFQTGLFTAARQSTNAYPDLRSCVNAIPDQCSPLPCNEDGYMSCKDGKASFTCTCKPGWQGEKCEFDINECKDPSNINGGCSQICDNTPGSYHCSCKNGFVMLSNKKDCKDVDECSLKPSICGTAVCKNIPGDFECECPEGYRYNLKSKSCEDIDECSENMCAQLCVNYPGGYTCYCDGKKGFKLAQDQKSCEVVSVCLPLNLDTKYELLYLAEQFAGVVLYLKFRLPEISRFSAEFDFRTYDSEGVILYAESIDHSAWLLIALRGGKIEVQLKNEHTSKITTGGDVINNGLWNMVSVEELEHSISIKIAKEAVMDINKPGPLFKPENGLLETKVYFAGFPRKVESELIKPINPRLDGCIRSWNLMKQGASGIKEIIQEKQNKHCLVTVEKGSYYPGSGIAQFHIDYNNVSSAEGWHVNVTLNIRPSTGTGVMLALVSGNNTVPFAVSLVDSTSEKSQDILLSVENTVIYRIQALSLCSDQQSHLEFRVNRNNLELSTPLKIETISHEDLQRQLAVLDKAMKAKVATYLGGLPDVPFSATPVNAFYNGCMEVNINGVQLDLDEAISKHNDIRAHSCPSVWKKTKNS
The experiment can be described thus: Binding of protein S to the binding site on C4BPβ in the presence of physiological calcium. Here is the method:
Even though it is possible to design C4BP-like molecules which could be very efficient as catching ligands in assays for free protein S, suitable embodiments of the invention are based on use of the entire C4BP molecule or, rather, C4BP species comprising the β-chain, i.e. C4BPβ, as ligands in such assays. Since the binding site on C4BPβ binds protein S with very high affinity (KD=0.1 nM) in the presence of physiological calcium concentrations, the association rate constant in the presence of calcium ions being high (almost 10^5 M^−1 s−^1) and the dissociation rate constant being low (approximately 5×10^−4 s−^1), C4BPβ (containing an unoccupied protein S binding site on the β-chain) is a highly specific and efficient ligand for free protein S and is able to specifically bind to free protein S in a solution containing both free protein S and PS:C4BP complexes.

The next experiment has as its target T2, free protein S (Homo sapiens, UniProt P07225).
T2 construct: from tissue; host or cells: human plasma
T2 sequence (P07225 42-676): T1 sequence (P07225 42-676)
The experiment can be described thus: Addition of C4BP to human plasma, free protein S measured with the assay of Example 2. The class given is binding. The settings on record: two-fold molar excess of C4BP compared to free protein S, 1 hour at 37° C. Here is the method:
Assay procedure: Aliquots (50 μl) of the sample to be analyzed (for patient plasma usually 1:100 dilutions of plasma, the buffer for dilution being TBS containing 1% BSA, 2 mM calciumchloride and 1 mM benzamidine) were added to the wells of C4BP-microtiter plates and incubated at room temperature for 30 minutes. The wells were then washed with TBS-wash-ing buffer and biotinylated monoclonal antibody HPS54 (diluted 1:1000, corresponding to about 0.1–1 μg/ml, in TBS containing 1% BSA, 2 mM calcium chloride) was added. Unbound HPS54 was washed away with 3×TBS-washing buffer. Peroxidase-conjugated streptavidine (from Dakopatts AS and prepared according to the manufacturers instructions and diluted 1:2500) (50 μl/well) was added and incubated 15 minutes at room temperature before unbound complexes were washed away with 3×TBS-washing buffer. Aliquots (100 μl/well) of the peroxidase substrate OPD (1,2-ortho-phenylene diamine in the form of 2 mg tablets from Dakopatts A/S) at 1.5 mg/ml in 0.1 M citric acid-phosphate buffer, pH 5.0 (prepared according to instructions from Dakopatts) was added together with H2O2 (0.015%). After exactly 5 minutes, the reaction was stopped by 100 μl/well of 1 M H2SO4 and the absorbance was measured at 490 nm.
To test the specificity of the assay for free protein S, two different experiments were performed. […]

Broadly, the Kd is the concentration at which binding is half-saturated.

B1: C4BPβ: species of C4b-binding protein containing the protein S binding β-chain, isolated from human plasma (protein)
chain 1: NCGPPPTLSFAAPMDITLTETRFKTGTTLKYTCLPGYVRSHSTQTLTCNSDGEWVYNTFCIYKRCRHPGELRNGQVEIKTDLSFGSQIEFSCSEGFFLIGSTTSRCEVQDRGVGWSHPLPQCEIVKCKPPPDIRNGRHSGEENFYAYGFSVTYSCDPRFSLLGHASISCTVENETIGVWRPSPPTCEKITCRKPDVSHGEMVSGFGPIYNYKDTIVFKCQKGFVLRGSSVIHCDADSKWNPSPPACEPNSCINLPDIPHASWETYPRPTKEDVYVVGTVLRYRCHPGYKPTTDEPTTVICQKNLRWTPYQGCEALCCPEPKLNNGEITQHRKSRPANHCVYFYGDEISFSCHETSRFSAICQGDGTWSPRTPSCGDICNFPPKIAHGHYKQSSSYSFFKEEIIYECDKGYILVGQAKLSCSYSHWSAPAPQCKALCRKPELVNGRLSVDKDQYVEPENVTIQCDSGYGVVGPQSITCSGNRTWYPEVPKCEWETPEGCEQVLTGKRLMQCLPNPEDVKMALEVYKLSLEIEQLELQRDSARQSTLDKEL
chain 2: SDAEHCPELPPVDNSIFVAKEVEGQILGTYVCIKGYHLVGKKTLFCNASKEWDNTTTECRLGHCPDPVLVNGEFSSSGPVNVSDKITFMCNDHYILKGSNRSQCLEDHTWAPPFPICKSRDCDPPGNPVHGYFEGNNFTLGSTISYYCEDRYYLVGVQEQQCVDGEWSSALPVCKLIQEAPKPECEKALLAFQESKNLCEAMENFMQQLKESGMTMEELKYSLELKKAELKAKLL
Consider B1, for which, in the experiment with protein S (presence of calcium ions), the association rate constant is ~10^5 M^−1 s−^1 and the dissociation rate constant entry is on record as “approximately 5×10^−4 s−^1”. The dissociation constant Kd in the experiment with protein S (presence of physiological calcium concentrations) was 0.1 nM. In the experiment with free protein S, the “drop in free protein S” value is listed as 90%.

The values are drawn from patent US7041458B2, “Methods and reagents for determining protein S” (priority 1996, dated 2006).
